Assay results reported in the Immune Epitope Database (IEDB).
pIC50, pKd: −log10 of the molar value. Blank lines part the entries; values can stand above or below the sequence they belong to.

What was measured:
HLA-A*31:01 [1] = assay: IEDB peptide-MHC binding, purified MHC/competitive/fluorescence; filed as Kd, often an IC50 or EC50 that approximates it; ≥ and ≤ were set here for values at or beyond the usual limits of such assays
HLA-A*11:01 [2] = assay: IEDB peptide-MHC binding, purified MHC/direct/fluorescence; filed as Kd, often an IC50 or EC50 that approximates it; ≥ and ≤ were set here for values at or beyond the usual limits of such assays
HLA-A*03:01 [3] = assay: as above
HLA-B*58:01 [4] = assay: as above
HLA-B*15:17 = assay: as above
HLA-B*57:01 [5] = assay: IEDB peptide-MHC binding, purified MHC/competitive/radioactivity; filed as Kd, often an IC50 or EC50 that approximates it; ≥ and ≤ were set here for values at or beyond the usual limits of such assays; conditions: source organism: Dengue virus 3 Martinique/1243/1999
HLA-B*58:01 [6] = assay: as above
HLA-A*32:01 = assay: as above
HLA-A*11:01 [7] = assay: IEDB peptide-MHC binding, purified MHC/competitive/fluorescence; ≥ and ≤ were set here for values at or beyond the usual limits of such assays; conditions: source organism: Zaire ebolavirus
HLA-A*24:02 = assay: as above
HLA-B*15:01 [8] = assay: as above
HLA-A*02:01 [9] = assay: as above; conditions: source organism: Zaire ebolavirus
HLA-A*03:01 [10] = assay: as above; conditions: source organism: Zaire ebolavirus
HLA-B*57:01 [11] = assay: IEDB peptide-MHC binding, purified MHC/direct/fluorescence; filed as Kd, often an IC50 or EC50 that approximates it; ≥ and ≤ were set here for values at or beyond the usual limits of such assays
HLA-B*15:01 [12] = assay: as above; conditions: source organism: Giardia lamblia ATCC 50803
HLA-A*26:01 = assay: as above
HLA-A*01:01 [13] = assay: as above
HLA-B*27:05 = assay: as above
HLA-A*02:01 [14] = assay: as above
HLA-B*44:02 = assay: as above
HLA-A*69:01 = assay: as above
HLA-B*40:01 = assay: as above
HLA-B*08:01 = assay: as above
HLA-B*07:02 = assay: as above
HLA-A*31:01 [15] = assay: as above; conditions: source organism: Vibrio cholerae
HLA-A*01:01 [16] = assay: IEDB peptide-MHC binding, purified MHC/competitive/fluorescence; filed as Kd, often an IC50 or EC50 that approximates it; ≥ and ≤ were set here for values at or beyond the usual limits of such assays; conditions: source organism: Influenza A virus (A/swine/Finistere/127/99(H3N2))
HLA-A*24:03 = assay: as above
HLA-A*02:01 [17] = assay: as above; conditions: source organism: Escherichia coli
HLA-B*18:01 = assay: IEDB peptide-MHC binding, purified MHC/direct/fluorescence; filed as Kd, often an IC50 or EC50 that approximates it; ≥ and ≤ were set here for values at or beyond the usual limits of such assays; conditions: source organism: Orthohantavirus hantanense
[18] = source organism: Burkholderia mallei
[19] = source organism: Brucella abortus 2308
[20] = source organism: Marburg virus - Musoke, Kenya, 1980
[21] = source organism: Dengue virus 3 Martinique/1243/1999
[22] = source organism: Zaire ebolavirus
[23] = source organism: Dengue virus 4 Dominica/814669/1981
[24] = source organism: Giardia lamblia ATCC 50803
[25] = source organism: Vibrio cholerae
[26] = source organism: Camelpox virus M-96
[27] = source organism: Orthohantavirus hantanense
[28] = source organism: Vaccinia virus Copenhagen

Sequence: AQHAPDAAK
pKd (HLA-A*31:01 [1]; source organism: Burkholderia mallei SAVP1): 6.76 | pKd (HLA-A*11:01 [2]; [18]): 7.19 | pKd (HLA-A*03:01 [3]; [18]): 5.67

Sequence: RQMLHEIGR
pKd (HLA-A*31:01 [1]; source organism: Paramagnetospirillum magnetotacticum MS-1): 8.93 | pKd (HLA-A*11:01 [2]; [19]): 6.18 | pKd (HLA-A*03:01 [3]; [19]): 5.49

Sequence: KAVEKGKNW
pKd (HLA-B*58:01 [4]; [20]): 7.04 | pKd (HLA-B*15:17; [20]): 7.75

Sequence: RVMGITAEW
pKd (HLA-B*57:01 [5]): 8.53 | pKd (HLA-B*58:01 [6]; [21]): 9.08 | pKd (HLA-A*32:01; [21]): 7.44

Sequence: VIYRGTTFA
pIC50 (HLA-A*11:01 [7]): 4.42 | pIC50 (HLA-A*24:02; [22]): 4.34 | pIC50 (HLA-B*15:01 [8]; [22]): ≤ 4.15 | pIC50 (HLA-A*02:01 [9]): 5.82 | pIC50 (HLA-A*03:01 [10]): 5.38

Sequence: KTQAIDGEF
pKd (HLA-B*58:01 [6]; [23]): 6.54 | pKd (HLA-A*32:01; [23]): 6.19

Sequence: ISFQQTNAM
pIC50 (HLA-A*11:01 [7]): ≤ 3.90 | pIC50 (HLA-A*24:02; [22]): 5.01 | pIC50 (HLA-B*15:01 [8]; [22]): 5.21 | pIC50 (HLA-A*02:01 [9]): 5.19

Sequence: KLLQICMWF
pKd (HLA-B*57:01 [11]; [24]): ≤ 4.70 | pKd (HLA-A*11:01 [2]; [24]): ≤ 4.70 | pKd (HLA-B*15:01 [12]): 4.78 | pKd (HLA-A*26:01; [24]): ≤ 4.70 | pKd (HLA-B*58:01 [4]; [24]): 5.83 | pKd (HLA-A*01:01 [13]; [24]): ≤ 4.70 | pKd (HLA-B*27:05; [24]): ≤ 4.70 | pKd (HLA-A*02:01 [14]; [24]): 5.47 | pKd (HLA-B*44:02; [24]): ≤ 4.70 | pKd (HLA-A*69:01; [24]): ≤ 4.70 | pKd (HLA-B*40:01; [24]): ≤ 4.70 | pKd (HLA-B*08:01; [24]): ≤ 4.70 | pKd (HLA-A*03:01 [3]; [24]): ≤ 4.70 | pKd (HLA-B*07:02; [24]): ≤ 4.70

Sequence: ERSWNSGHEW
pKd (HLA-B*58:01 [6]; source organism: Dengue virus 2 Jamaica/1409/1983): 6.87

Sequence: ITGLPPTEW
pKd (HLA-B*58:01 [4]; [19]): 7.61 | pKd (HLA-B*15:17; [19]): 8.64

Sequence: IHYAGWVSL
pKd (HLA-A*11:01 [2]; [25]): ≤ 4.70 | pKd (HLA-A*26:01; [25]): ≤ 4.70 | pKd (HLA-A*31:01 [15]): ≤ 4.70 | pKd (HLA-B*58:01 [4]; [25]): ≤ 4.70 | pKd (HLA-A*01:01 [13]; [25]): ≤ 4.70 | pKd (HLA-B*27:05; [25]): ≤ 4.70 | pKd (HLA-A*02:01 [14]; [25]): ≤ 4.70 | pKd (HLA-B*44:02; [25]): ≤ 4.70 | pKd (HLA-A*69:01; [25]): ≤ 4.70 | pKd (HLA-B*40:01; [25]): ≤ 4.70 | pKd (HLA-B*08:01; [25]): ≤ 4.70 | pKd (HLA-A*03:01 [3]; [25]): ≤ 4.70 | pKd (HLA-B*07:02; [25]): 6.49

Sequence: MLASIDLKY
pKd (HLA-A*01:01 [16]): 6.37

Sequence: KSALNDFDF
pKd (HLA-B*57:01 [11]; [26]): 6.60 | pKd (HLA-B*58:01 [4]; [26]): 7.57 | pKd (HLA-B*15:17; [26]): 7.53

pKd (HLA-A*24:03; source organism: Escherichia coli): 7.36 | pKd (HLA-A*02:01 [17]): 7.44
Sequence: LMQSLYDWI

Sequence: RMGVQMQRF
pKd (HLA-A*24:03; source organism: Influenza A virus (A/swine/Hannover/1/1981(H1N1))): 6.53

Sequence: REINAHEGQ
pKd (HLA-B*44:02; [27]): ≤ 4.70 | pKd (HLA-B*18:01): ≤ 4.70 | pKd (HLA-B*40:01; [27]): 6.83

Sequence: TFAEGVVAF
pIC50 (HLA-A*24:02; [22]): 6.67 | pIC50 (HLA-B*15:01 [8]; [22]): 4.73

Sequence: KAIITPIVF
pIC50 (HLA-A*24:02; [28]): 4.95 | pIC50 (HLA-B*15:01 [8]; [28]): 4.80
